From patent WO2016038310A1 (dated 2016)

What was measured:
[1] = target: T1, FSH ovine dimérique (ovine follicle-stimulating hormone) (ovine, UniProt P01218 25-120; P01227 20-129); experiment: cell-based or functional assay
[2] = target: T2, FSH humaine recombinante Gonal-F (recombinant human FSH, Merck Serono) (human, UniProt P01215 25-116; P01225 19-129); experiment: SPR (Biacore T100), A8 captured on anti-mouse Fc, hFSH injected 1,56 to 50nM
T2 construct: Commercial recombinant preparation; also called hFSH Gonal F; hFSH
T2 sequence (P01215 25-116 limits assumed, chain 1 of 2): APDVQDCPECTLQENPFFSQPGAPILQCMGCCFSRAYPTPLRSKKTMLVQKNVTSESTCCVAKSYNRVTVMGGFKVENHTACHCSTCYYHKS
T2 sequence (P01225 19-129 limits assumed, chain 2 of 2): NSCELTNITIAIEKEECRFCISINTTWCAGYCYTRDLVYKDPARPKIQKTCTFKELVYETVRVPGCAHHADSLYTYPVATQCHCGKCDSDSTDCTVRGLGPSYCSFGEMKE

[3] = target: T3, hCG Endo 5000 (purified human chorionic gonadotropin, Schering-Plough) (human, UniProt P01215 25-116; P0DN86 21-165); experiment: ELISA saturation binding, Kd estimated with GraphPad Prism (one site - specific binding)
T3 construct: Commercial preparation; also called Gonadotropine Chorionique Endo5000
T3 sequence (P01215 25-116 limits assumed, chain 1 of 2, other chains not shown): as the sequence (P01215 25-116 limits assumed, chain 1 of 2) above

[4] = target: T4, hCG Chorulon (human chorionic gonadotropin extracted from urine, MSD) (human, UniProt P01215 25-116; P0DN86 21-165); experiment: as above
T4 construct: Commercial preparation
T4 sequence (P01215 25-116 limits assumed, chain 1 of 2, other chains not shown): as the sequence (P01215 25-116 limits assumed, chain 1 of 2) above

[5] = target: T5, eCG commerciale Chronogest (MSD) (equine, UniProt P01220 25-120; P08751 21-169); experiment: as above
T5 construct: Commercial preparation; also called eCG Chronogest
T5 sequence (P01220 25-120 limits assumed, chain 1 of 2): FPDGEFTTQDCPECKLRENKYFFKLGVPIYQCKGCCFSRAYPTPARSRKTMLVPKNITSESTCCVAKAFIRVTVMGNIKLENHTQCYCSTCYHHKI
T5 sequence (P08751 21-169 limits assumed, chain 2 of 2): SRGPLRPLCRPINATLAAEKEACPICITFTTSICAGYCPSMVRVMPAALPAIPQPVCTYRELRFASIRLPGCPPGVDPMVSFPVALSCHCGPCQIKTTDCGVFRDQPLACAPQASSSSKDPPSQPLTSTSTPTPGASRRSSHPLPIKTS

[6] = target: T1, FSH ovine dimérique (ovine …); experiment: SPR (Biacore T100), A8 captured on anti-mouse Fc, oFSH injected
[7] = target: T2, FSH humaine recombinante Gonal-F …; experiment: SPR (Biacore T100), A8 captured on anti-mouse Fc, hFSH injected
[8] = target: T1, FSH ovine dimérique (ovine …); experiment: SPR (Biacore T100), A8 captured on anti-mouse Fc, oFSH injected 1,56 to 50nM

sécrétion d'AMPc (cAMP secretion), bovine granulosa cells, oFSH 3ng/ml [1]: 2.1 fold
sécrétion d'AMPc (cAMP secretion), bovine granulosa cells, oFSH 12,5 ng/ml [1]: 1.5 fold
Kd [2]: 4.7 nM
Kd [3]: ~100 nM
Kd [4]: ~100 nM
koff [6]: 0.00082 s⁻¹
kon [6]: 130000 M⁻¹ s⁻¹
koff [7]: 0.0011 s⁻¹
kon [7]: 240000 M⁻¹ s⁻¹
Kd [8]: 6.3 nM
B1: anticorps monoclonal A8 (monoclonal antibody A8, hybridoma CNCM I-4828) (antibody, V domains shown)
VH: EVQLQESGGGLVQPGGSRKLSCAASGFTFSDFGTHWIRQAPEKGLEWVAYISSGSSTRYYADTVKGRFTISRDDPKNTLFLQMTSLRSEDTAMYYCARSYDGYHVPSFAYWGQGTLVTVSA
VL: DVLMTQTPLSLSVSLGDQASISCRSSQNIVHSNGNTYLEWYLQKPGQSPKLLIYRVSNRFSGIPDRFSGSSSGTDFTLKISRVEAEDLGVYYCFQGSHVPLTFGAGTKLELK
notes: Purified antibody or hybridoma supernatant, depending on the assay; also called AcM A8; ligand A8
Kd [5]: ~100 nM
